# Changes are numbered by the printed parent chain.
# B1: COV2-2094 (antibody, V domains shown)
# VH: EVQLVESGGGVVRPGGSLRLSCAASGFIFDDYDMTWVRQAPGKGLEWVSGINWNGGSTGYADSVKGRFTISRDNAKNSLYLQMNSLRAEDTALYHCAVIMSPIPRYSGYDWAGDAFDIWGQGTMVTVSS
# VL: SSELTQDPAVSVALGQTVRITCQGDSLRSYYASWYQQKPGQVPILVIYDKNNRPSGIPDRFSGSSSGNTASLTITGAQAEDEADYYCNSRDSSGNAVVFGGGTKLTVL
# B2: COV2-2514 (antibody, V domains shown)
# VH: B1 VH
# VL: B1 VL
# B3: COV2-3025 (antibody, V domains shown)
# VH: EVQLVQSGPEVKKPGTSVKVSCKASGFTFMSSAVQWVRQARGQRLEWIGWIVIGSGNTNYAQKFQERVTITRDMSTSTAYMELSSLRSEDTAVYYCAAPYCSSISCNDGFDIWGQGTMVTVSS
# VL: EIVLTQSPGTLSLSPGERVTLSCRASQSVSSSYLAWYQQKPGQAPRLLIYGASSRATGIPDRFSGSGSGTDFTLTISRLEPEDFAVYYCQHYGSSRGWTFGQGTKVEIK
# B4: COV2-2838 (antibody, V domains shown)
# VH: B3 VH with E1Q, V2M
# VL: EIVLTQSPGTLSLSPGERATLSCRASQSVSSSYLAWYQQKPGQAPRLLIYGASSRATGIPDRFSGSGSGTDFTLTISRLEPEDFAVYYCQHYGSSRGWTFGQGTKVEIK
# B5: COV2-2196 (antibody, V domains shown)
# VH: B3 VH with E1Q, V2M
# VL: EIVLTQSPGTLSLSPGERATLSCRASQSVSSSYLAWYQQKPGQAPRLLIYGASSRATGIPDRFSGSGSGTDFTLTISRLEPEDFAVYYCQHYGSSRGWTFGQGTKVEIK
# notes: also called mAb COV2-2196
# B6: COV2-2952 (antibody, V domains shown)
# VH: EVQLVESGGGLVQPGGSLRLSCAASGLTVRSNYMTWVRQTPGKGLEWVSVIYSGGSTFYADSVKGRFTISRDNSKNTVYLQMNSLRAEDTAVYYCARDLVTYGLDVWGQGTTVTVSS
# VL: DIQLTQSPSFLSASVGDRVTITCRASQGISNYLAWYQQKPGTAPNLLIYAASTLQSGVPSRFSGSGSGTEFTLTISSLQPEDFATYYCQLLNSHPLTFGQGTRLEIK
# B7: COV2-2165 (antibody, V domains shown)
# VH: B6 VH
# VL: B6 VL
# B8: COV2-2096 (antibody, V domains shown)
# VH: QVQLVQSGAEVKKPGASVKVSCKASGYTFGSFDINWVRQATGQGLEWMGRMNSNSGNTAYAQKFQGRVTMTRDTSTNTAYMELSSLRSEDTAMYYCARMRSGWPTHGRPDDFWGRGTLVTVSS
# VL: QSVLTQAPSASGTPGQRVTISCSGSNSNIGSYTINWYQQLPGTAPKLLIYGNDQRTSGVPDRFSGSKFGTSASLAISGLQSEDENNYYCAVWDDSLNGLVFGGGTKLTVL
# B9: COV2-2391 (antibody, V domains shown)
# VH: B8 VH
# VL: B8 VL
# Biological target: SARS-CoV Spike trimer (Table A) (SARS-CoV, UniProt P59594 14-1190)
# Assay: ELISA, purified IgG
row,Binder,ELISA OD 450 nm
1,B1,4.1 OD 450 nm
2,B2,3.6 OD 450 nm
3,B3,0.21 OD 450 nm

# Biological target: T1, SARS-CoV-2 NTD (Table A) (SARS-CoV-2, UniProt P0DTC2 14-305)
# T1 construct: domain: NTD
# Assay: ELISA, purified IgG
row,Binder,ELISA OD 450 nm
1,B1,0.1 OD 450 nm
2,B2,0.09 OD 450 nm
3,B4,0.12 OD 450 nm
4,B5,0.05 OD 450 nm
5,B6,0.1 OD 450 nm
6,B7,0.05 OD 450 nm
7,B8,0.12 OD 450 nm
8,B9,0.1 OD 450 nm

# Biological target: T2, SARS-CoV-2 RBD (Table A) (SARS-CoV-2, UniProt P0DTC2 319-541)
# T2 construct: domain: RBD
# Assay: ELISA, purified IgG
row,Binder,ELISA OD 450 nm
1,B1,4.3 OD 450 nm
2,B2,3.56 OD 450 nm
3,B3,3.7 OD 450 nm

# Biological target: T3, SARS-CoV-2 spike (S) glycoprotein on virus (neutralization assays) (SARS-CoV-2, UniProt P0DTC2 14-1273)
# Assay: cell-based or functional assay
row,Binder,"Neutralization IC50, ng/mL (FRNT, authentic SARS-CoV-2)"
1,B1,154 ng/mL
2,B5,15 ng/mL
3,B3,37 ng/mL
4,B7,332 ng/mL
5,B8,59 ng/mL

# Biological target: T4, SARS-CoV-2 S receptor-binding domain (SRBD), residues 319-541 (SARS-CoV-2, UniProt P0DTC2 319-541)
# T4 construct: range 319-541
# Assay: ELISA on coated antigen
row,Binder,EC50
1,B1,0.0014 µg/mL
2,B3,0.0011 µg/mL

# Biological target: T3, SARS-CoV-2 spike (S) glycoprotein on …
# Assay: cell-based or functional assay
# Remark: another data set of the same source
Binder,"Nano-luciferase virus reduction test, SARS-CoV-2, IC50","SARS-CoV-2 focus reduction test, IC50"
B1,< 0.05 µg/mL,0.151 µg/mL
B2,–,0.084 µg/mL
B4,–,0.014 µg/mL
B5,< 0.1 µg/mL,0.029 µg/mL
B3,–,0.031 µg/mL
B6,–,0.089 µg/mL
B7,< 0.4 µg/mL,0.185 µg/mL
B8,< 0.2 µg/mL,0.29 µg/mL
B9,–,0.045 µg/mL

# Source: US20210300999A1 (VANDERBILT UNIVERSITY, published 2021)
